pKi: −log10 of the molar value.
Columns and labels:
[1] = target: FITC-labeled salmon calcitonin (sCT) fragment(22–32); experiment: fluorescence anisotropy, FITC-peptide probe binding; conditions: anisotropy at the highest receptor concentration shown for this mutant, read off a plot
[2] = target: FITC-labeled AC413(6–25) with Y25P mutation; experiment: as above; conditions: anisotropy at the highest receptor concentration shown, log [RAMP1 ECD-CTR ECD fusion] M = -6; parent: est. 0.19; read off a plot
[3] = target: amylin receptor 1 extracellular domain, wild type (hRAMP1.24–111-(GSA)3-hCTR.34–141-H6) (human) (UniProt O60894); experiment: competition binding assay; non-labeled sCT(22–32) as competitor on amylin receptor 1 ECDs (Figure S3); probe and conditions not shown
[4] = target: amylin receptor 1 ECD ECD (Homo sapiens) (UniProt P30988); conditions: cited from earlier work
[5] = log [RAMP1 ECD-CTR ECD fusion] M = -5.5, parent: est. 0.19

Sequence of salmon calcitonin fragment sCT(22-32) 22-32 (P01263 whole entry, looked up, the tested form may be a part): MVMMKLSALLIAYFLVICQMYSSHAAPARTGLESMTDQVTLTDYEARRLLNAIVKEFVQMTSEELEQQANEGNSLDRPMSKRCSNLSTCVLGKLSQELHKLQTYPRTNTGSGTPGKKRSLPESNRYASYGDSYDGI

## amylin receptor 1 extracellular domain, wild type (hRAMP1.24–111-(GSA)3-hCTR.34–141-H6) (from UniProt O60894) D101A
[1]; log [RAMP1 ECD-CTR ECD fusion] M = -6, parent: est. 0.18
  response: 0.035
[2]
  response: 0.041

## amylin receptor 1 extracellular domain, wild type (hRAMP1.24–111-(GSA)3-hCTR.34–141-H6) (from UniProt O60894) D101E
[1]; [5]
  response: 0.035
[2]
  response: 0.046

## amylin receptor 1 extracellular domain, wild type (hRAMP1.24–111-(GSA)3-hCTR.34–141-H6) (from UniProt O60894) N135A
[1]; [5]
  response: 0.081
[2]
  response: 0.1

## amylin receptor 1 extracellular domain, wild type (hRAMP1.24–111-(GSA)3-hCTR.34–141-H6) (from UniProt O60894) N135D
[1]; [5]
  response: 0.052
[2]
  response: 0.056

## non-labeled salmon calcitonin (sCT) (22–32) fragment (peptide)
[3]
  pKi: 6.05

## salmon calcitonin fragment sCT(22-32) 22-32 (from UniProt P01263)
[4]
  pKi: 5.60

— publication PMC12292835, “Amylin Receptor 1 Mutagenesis Revealed a Potential Role of Calcitonin Serine 29 in Receptor Interaction” (Biomedicines, 2025)
